The values below come from ChEMBL document CHEMBL2429837, “Identification of cryptotanshinone as an inhibitor of oncogenic protein tyrosine phosphatase SHP2 (PTPN11)” (J Med Chem, 2013).

What all share (conditions): Homo sapiens; 25 uM
Substrate in data set [1]: C[C@H]1COC2=C1C(=O)C(=O)c1c2ccc2c1CCCC2(C)C
Substrate in data set [2]: C[C@H]1COC2=C1C(=O)C(=O)c1c2ccc2c1CCCC2(C)C
The source holds these as a separate data set.

Substrate in data set [3]: C[C@H]1COC2=C1C(=O)C(=O)c1c2ccc2c1CCCC2(C)C
The source holds these as a separate data set.

Substrate in data set [4]: C[C@H]1COC2=C1C(=O)C(=O)c1c2ccc2c1CCCC2(C)C
The source holds these as a separate data set.

B1: Tyrosine-protein phosphatase non-receptor type 11 (Homo sapiens), Q06124 (protein)
chain: MTSRRWFHPNITGVEAENLLLTRGVDGSFLARPSKSNPGDFTLSVRRNGAVTHIKIQNTGDYYDLYGGEKFATLAELVQYYMEHHGQLKEKNGDVIELKYPLNCADPTSERWFHGHLSGKEAEKLLTEKGKHGSFLVRESQSHPGDFVLSVRTGDDKGESNDGKSKVTHVMIRCQELKYDVGGGERFDSLTDLVEHYKKNPMVETLGTVLQLKQPLNTTRINAAEIESRVRELSKLAETTDKVKQGFWEEFETLQQQECKLLYSRKEGQRQENKNKNRYKNILPFDHTRVVLHDGDPNEPVSDYINANIIMPEFETKCNNSKPKKSYIATQGCLQNTVNDFWRMVFQENSRVIVMTTKEVERGKSKCVKYWPDEYALKEYGVMRVRNVKESAAHDYTLRELKLSKVGQGNTERTVWQYHFRTWPDHGVPSDPGGVLDFLEEVHHKQESIMDAGPVVVHCSAGIGRTGTFIVIDILIDIIREKGVDCDIDVPKTIQMVRSQRSGMVQTEAQYRFIYMAVQHYIETLQRRIEEEQKSKRKGHEYTNIKYSLADQTSGDQSPLPPCTPTPPCAEMREDSARVYENVGLMQQQKSFR
For B1, in data set [1], the Vmax is 6.96 µM/min. Also, the Michaelis-Menten constant (Km) in data set [2] was found to be 170 µM. For the same protein, the kcat in data set [3] was determined as 0.36 s⁻¹. For the same protein, the specificity constant (kcat/Km) in data set [4] was 2150 M⁻¹ s⁻¹.
